From patent US20090170126A1
Ends that are not written are not given here.

How the values were obtained:
[1] = biological target: commercially available anti-prostasin mouse monoclonal antibody (BD Biosciences, catalog No. 612173); assay: competitive immunoassay, commercial monoclonal antibody-immobilized plate; competitor POD-labeled recombinant full-length prostasin 6.4 µg/mL; unlabeled recombinant full-length prostasin 5 ng/mL
[2] = biological target: commercially available anti-prostasin mouse monoclonal antibody (BD Biosciences, catalog No. 612173); assay: competitive immunoassay, commercial monoclonal antibody-immobilized plate; competitor POD-labeled recombinant full-length prostasin 6.4 µg/mL; unlabeled recombinant full-length prostasin 100 ng/mL
[3] = biological target: commercially available anti-prostasin mouse monoclonal antibody (BD Biosciences, catalog No. 612173); assay: competitive immunoassay, commercial monoclonal antibody-immobilized plate; competitor POD-labeled recombinant full-length prostasin 6.4 µg/mL; unlabeled recombinant full-length prostasin 25 ng/mL
[4] = biological target: commercially available anti-prostasin mouse monoclonal antibody (BD Biosciences, catalog No. 612173); assay: competitive immunoassay, commercial monoclonal antibody-immobilized plate; competitor POD-labeled recombinant full-length prostasin 6.4 µg/mL; unlabeled recombinant full-length prostasin 0 ng/mL
[5] = biological target: commercially available anti-prostasin mouse monoclonal antibody (BD Biosciences, catalog No. 612173); assay: competitive immunoassay, commercial monoclonal antibody-immobilized plate; competitor POD-labeled recombinant full-length prostasin 6.4 µg/mL; unlabeled recombinant full-length prostasin 50 ng/mL
[6] = biological target: commercially available anti-prostasin mouse monoclonal antibody (BD Biosciences, catalog No. 612173); assay: competitive immunoassay, commercial monoclonal antibody-immobilized plate; competitor POD-labeled recombinant full-length prostasin 6.4 µg/mL; unlabeled recombinant full-length prostasin 10 ng/mL
[7] = biological target: affinity-purified antibody (a); assay: antibody (a)-immobilized plate; POD-labeled peptide (a) 0.25 µg/mL; competitor unlabeled partial peptide (a) 50 ng/mL
[8] = biological target: affinity-purified antibody (a); assay: antibody (a)-immobilized plate; POD-labeled peptide (a) 0.20 µg/mL; competitor unlabeled partial peptide (a) 50 ng/mL
[9] = biological target: affinity-purified antibody (a); assay: antibody (a)-immobilized plate; POD-labeled peptide (a) 0.05 µg/mL; competitor unlabeled partial peptide (a) 50 ng/mL
[10] = biological target: affinity-purified antibody (a); assay: antibody (a)-immobilized plate; POD-labeled peptide (a) 0.05 µg/mL; unlabeled partial peptide (a) 0 ng/mL
[11] = biological target: affinity-purified antibody (a); assay: antibody (a)-immobilized plate; POD-labeled peptide (a) 0.15 µg/mL; competitor unlabeled partial peptide (a) 50 ng/mL
[12] = biological target: affinity-purified antibody (a); assay: difference of absorbance between 0 and 50 ng/mL unlabeled partial peptide (a); antibody (a)-immobilized plate; POD-labeled peptide (a) 0.025 µg/mL
[13] = biological target: affinity-purified antibody (a); assay: antibody (a)-immobilized plate; POD-labeled peptide (a) 0.025 µg/mL; competitor unlabeled partial peptide (a) 50 ng/mL
[14] = biological target: affinity-purified antibody (a); assay: antibody (a)-immobilized plate; POD-labeled peptide (a) 0.025 µg/mL; unlabeled partial peptide (a) 0 ng/mL
[15] = biological target: affinity-purified antibody (a); assay: difference of absorbance between 0 and 50 ng/mL unlabeled partial peptide (a); antibody (a)-immobilized plate; POD-labeled peptide (a) 0.05 µg/mL
[16] = biological target: affinity-purified antibody (a); assay: difference of absorbance between 0 and 50 ng/mL unlabeled partial peptide (a); antibody (a)-immobilized plate; POD-labeled peptide (a) 0.20 µg/mL
[17] = biological target: affinity-purified antibody (a); assay: antibody (a)-immobilized plate; POD-labeled peptide (a) 0.10 µg/mL; competitor unlabeled partial peptide (a) 50 ng/mL
[18] = biological target: affinity-purified antibody (a); assay: antibody (a)-immobilized plate; POD-labeled peptide (a) 0.15 µg/mL; unlabeled partial peptide (a) 0 ng/mL
[19] = biological target: affinity-purified antibody (a); assay: difference of absorbance between 0 and 50 ng/mL unlabeled partial peptide (a); antibody (a)-immobilized plate; POD-labeled peptide (a) 0.25 µg/mL
[20] = biological target: affinity-purified antibody (a); assay: difference of absorbance between 0 and 50 ng/mL unlabeled partial peptide (a); antibody (a)-immobilized plate; POD-labeled peptide (a) 0.10 µg/mL
[21] = biological target: affinity-purified antibody (a); assay: antibody (a)-immobilized plate; POD-labeled peptide (a) 0.10 µg/mL; unlabeled partial peptide (a) 0 ng/mL
[22] = biological target: affinity-purified antibody (a); assay: difference of absorbance between 0 and 50 ng/mL unlabeled partial peptide (a); antibody (a)-immobilized plate; POD-labeled peptide (a) 0.15 µg/mL
[23] = biological target: affinity-purified antibody (a); assay: antibody (a)-immobilized plate; POD-labeled peptide (a) 0.25 µg/mL; unlabeled partial peptide (a) 0 ng/mL
[24] = biological target: affinity-purified antibody (a); assay: antibody (a)-immobilized plate; POD-labeled peptide (a) 0.20 µg/mL; unlabeled partial peptide (a) 0 ng/mL
[25] = biological target: affinity-purified antibody (c); assay: competitive immunoassay, antibody (c)-immobilized plate; competitor POD-labeled partial peptide (c) 0.35 µg/mL; unlabeled peptide (c) 5 ng/mL
[26] = biological target: affinity-purified antibody (c); assay: competitive immunoassay, antibody (c)-immobilized plate; competitor POD-labeled partial peptide (c) 0.35 µg/mL; unlabeled peptide (c) 10 ng/mL
[27] = biological target: affinity-purified antibody (c); assay: competitive immunoassay, antibody (c)-immobilized plate; competitor POD-labeled partial peptide (c) 0.35 µg/mL; unlabeled peptide (c) 50 ng/mL
[28] = biological target: affinity-purified antibody (c); assay: competitive immunoassay, antibody (c)-immobilized plate; competitor POD-labeled partial peptide (c) 0.35 µg/mL; unlabeled peptide (c) 25 ng/mL
[29] = biological target: affinity-purified antibody (c); assay: competitive immunoassay, antibody (c)-immobilized plate; competitor POD-labeled partial peptide (c) 0.35 µg/mL; unlabeled peptide (c) 0 ng/mL
[30] = biological target: affinity-purified antibody (c); assay: competitive immunoassay, antibody (c)-immobilized plate; competitor POD-labeled partial peptide (c) 0.35 µg/mL; unlabeled peptide (c) 100 ng/mL
[31] = biological target: affinity-purified antibody (e); assay: competitive immunoassay, antibody (e)-immobilized plate; competitor POD-labeled partial peptide (e) 0.30 µg/mL; unlabeled peptide (e) 0 ng/mL
[32] = biological target: affinity-purified antibody (e); assay: competitive immunoassay, antibody (e)-immobilized plate; competitor POD-labeled partial peptide (e) 0.30 µg/mL; unlabeled peptide (e) 100 ng/mL
[33] = biological target: affinity-purified antibody (e); assay: competitive immunoassay, antibody (e)-immobilized plate; competitor POD-labeled partial peptide (e) 0.30 µg/mL; unlabeled peptide (e) 50 ng/mL
[34] = biological target: affinity-purified antibody (e); assay: competitive immunoassay, antibody (e)-immobilized plate; competitor POD-labeled partial peptide (e) 0.30 µg/mL; unlabeled peptide (e) 5 ng/mL
[35] = biological target: affinity-purified antibody (e); assay: competitive immunoassay, antibody (e)-immobilized plate; competitor POD-labeled partial peptide (e) 0.30 µg/mL; unlabeled peptide (e) 10 ng/mL
[36] = biological target: affinity-purified antibody (e); assay: competitive immunoassay, antibody (e)-immobilized plate; competitor POD-labeled partial peptide (e) 0.30 µg/mL; unlabeled peptide (e) 25 ng/mL

## recombinant protein of full-length prostasin (prepared according to the method of Chen, L-M. et al., J. Biol. Chem., Vol. 276, pp. 21434-21442, 2001) (from UniProt Q16651 33-322) (enzyme)
[1]
  absorbance (Abs): 1.21 Abs
[2]
  absorbance (Abs): 1.22 Abs
[3]
  absorbance (Abs): 1.12 Abs
[4]
  absorbance (Abs): 1.18 Abs
[5]
  absorbance (Abs): 1.09 Abs
[6]
  absorbance (Abs): 1.19 Abs

## AHQLDSYSEDAKVSTLKDI (also: peroxidase (POD) label, attachment site not given here) [POD-labeled partial peptide (a)]
[7]
  absorbance (Abs): 1.99 Abs
[8]
  absorbance (Abs): 1.5 Abs
[9]
  absorbance (Abs): 0.477 Abs
[10]
  absorbance (Abs): 0.815 Abs
[11]
  absorbance (Abs): 1.25 Abs
[12]
  ΔOD [absorbance (Abs)]: 0.187 Abs
[13]
  absorbance (Abs): 0.231 Abs
[14]
  absorbance (Abs): 0.418 Abs
[15]
  ΔOD [absorbance (Abs)]: 0.338 Abs
[16]
  ΔOD [absorbance (Abs)]: 0.901 Abs
[17]
  absorbance (Abs): 0.809 Abs
[18]
  absorbance (Abs): 2.04 Abs
[19]
  ΔOD [absorbance (Abs)]: 0.925 Abs
[20]
  ΔOD [absorbance (Abs)]: 0.596 Abs
[21]
  absorbance (Abs): 1.41 Abs
[22]
  ΔOD [absorbance (Abs)]: 0.79 Abs
[23]
  absorbance (Abs): 2.91 Abs
[24]
  absorbance (Abs): 2.4 Abs

## NCLYNIDAKPEEPHFVQED [partial peptide (c) of prostasin]
[25]
  absorbance (Abs): 1.08 Abs
[26]
  absorbance (Abs): 1.11 Abs
[27]
  absorbance (Abs): 0.938 Abs
[28]
  absorbance (Abs): 1.12 Abs
[29]
  absorbance (Abs): 1.09 Abs
[30]
  absorbance (Abs): 0.943 Abs

## PQTQESQPDSN [partial peptide (e) of prostasin]
[31]
  absorbance (Abs): 1.97 Abs
[32]
  absorbance (Abs): 1.49 Abs
[33]
  absorbance (Abs): 1.41 Abs
[34]
  absorbance (Abs): 1.96 Abs
[35]
  absorbance (Abs): 1.62 Abs
[36]
  absorbance (Abs): 1.55 Abs
